From patent US20250277030A1 (Zymeworks, published 2025)

Tests used:
[1] = target: T1, cynomolgus monkey NaPi2b (cynomolgus monkey, UniProt O95436 1-690 (human entry)); experiment: flow cytometry, HEK293-6e cells transfected with cynomolgus NaPi2b
T1 construct: Transiently expressed on HEK293-6e cells; also called Cyno NaPi2b
T1 chain: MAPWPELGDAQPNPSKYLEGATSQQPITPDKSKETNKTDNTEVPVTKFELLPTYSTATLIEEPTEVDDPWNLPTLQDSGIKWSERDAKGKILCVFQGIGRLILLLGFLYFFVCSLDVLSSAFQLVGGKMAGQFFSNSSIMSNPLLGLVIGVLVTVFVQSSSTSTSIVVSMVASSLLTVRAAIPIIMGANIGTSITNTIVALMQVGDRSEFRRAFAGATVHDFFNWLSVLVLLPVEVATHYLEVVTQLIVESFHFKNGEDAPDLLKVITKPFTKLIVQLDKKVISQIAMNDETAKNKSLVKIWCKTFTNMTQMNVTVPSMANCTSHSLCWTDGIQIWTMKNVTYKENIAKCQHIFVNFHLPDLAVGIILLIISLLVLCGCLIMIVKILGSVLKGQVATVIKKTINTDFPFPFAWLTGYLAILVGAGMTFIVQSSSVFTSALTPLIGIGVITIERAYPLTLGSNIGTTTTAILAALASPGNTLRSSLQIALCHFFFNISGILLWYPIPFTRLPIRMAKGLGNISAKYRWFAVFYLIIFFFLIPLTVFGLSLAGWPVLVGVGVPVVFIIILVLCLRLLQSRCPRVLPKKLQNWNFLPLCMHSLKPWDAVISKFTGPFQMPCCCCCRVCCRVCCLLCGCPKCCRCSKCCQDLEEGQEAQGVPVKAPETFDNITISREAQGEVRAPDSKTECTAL
Experimental: The binding cross-reactivity of humanized antibody variant v29456 to human, cynomolgus and mouse NaPi2b was assessed by flow cytometry using HEK293-6e transfected cells.
(§1) Briefly, HEK293-6e cells were transfected for ˜24 hours to transiently express human NaPi2b, cynomolgus or mouse NaPi2b, at 1 μg of DNA per 1 million cells. Following transfection, 50,000 cells per well were seeded in V-bottom 96-well plates and incubated with 200 nM of primary antibody for 18-24 hours at 4° C. to prevent internalization. Post-incubation, cells were washed and stained with anti-Human IgG Fc AF647 conjugate (Jackson Immuno Research Labs, West Grove, PA, Cat. No. 109-605-098, Lot. No. 124868) at 4° C. for 1 hour. Following staining and washing, fluorescence was detected by flow cytometry on BD LSRFortessa™ Cell Analyzer (BD Biosciences, Franklin Lake, NJ) with 10,000 minimum events collected per well. The AF647/APC-A GeoMean (fluorescence signal geometric mean, proportional to anti-Human AF647 binding) was calculated for the live singlet cell population for each primary antibody using FlowJo™ v8 software (BD Biosciences, Franklin Lake, NJ). The Bmax and Kd of each primary antibody were calculated using GraphPad Prism Version 9 (GraphPad Software, San Diego, CA)

[2] = target: T2, human sodium-dependent phosphate transporter 2B (NaPi2b) (human, UniProt O95436 1-690); experiment: flow cytometry, IGROV-1 cells (endogenous NaPi2b); apparent Kd
T2 construct: UniProt ID is given as 095436 [sic]; also called hNaPi2b; Hu NaPi2b
T2 sequence: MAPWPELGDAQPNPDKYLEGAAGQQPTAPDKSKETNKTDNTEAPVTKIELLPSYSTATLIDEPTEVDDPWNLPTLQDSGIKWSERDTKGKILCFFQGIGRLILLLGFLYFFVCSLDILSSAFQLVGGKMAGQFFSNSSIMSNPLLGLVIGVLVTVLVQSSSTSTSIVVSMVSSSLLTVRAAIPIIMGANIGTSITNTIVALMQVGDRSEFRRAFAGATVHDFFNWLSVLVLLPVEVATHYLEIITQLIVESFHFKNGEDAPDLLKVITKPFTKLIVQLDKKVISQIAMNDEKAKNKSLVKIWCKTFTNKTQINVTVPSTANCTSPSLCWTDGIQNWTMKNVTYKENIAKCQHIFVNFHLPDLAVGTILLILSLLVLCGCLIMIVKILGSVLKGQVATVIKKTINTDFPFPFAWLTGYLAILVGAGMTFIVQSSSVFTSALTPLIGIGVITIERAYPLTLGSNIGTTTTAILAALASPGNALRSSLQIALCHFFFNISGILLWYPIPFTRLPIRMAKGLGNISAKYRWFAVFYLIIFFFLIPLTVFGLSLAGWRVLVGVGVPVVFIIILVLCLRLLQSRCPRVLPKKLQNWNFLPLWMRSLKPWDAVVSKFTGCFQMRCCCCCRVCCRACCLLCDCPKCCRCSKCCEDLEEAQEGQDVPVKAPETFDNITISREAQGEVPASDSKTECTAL
Experimental: as §1
The ability of ADCs to bind to cells expressing NaPi2b was assessed. […] Binding to endogenous high NaPi2b-expressing cell lines IGROV-1 and HCC-78 was assessed by flow cytometry according to methods described in Example 5.

B1: v29456 humanized anti-NaPi2b antibody (H1L2) (antibody, human IgG1, kappa)
heavy: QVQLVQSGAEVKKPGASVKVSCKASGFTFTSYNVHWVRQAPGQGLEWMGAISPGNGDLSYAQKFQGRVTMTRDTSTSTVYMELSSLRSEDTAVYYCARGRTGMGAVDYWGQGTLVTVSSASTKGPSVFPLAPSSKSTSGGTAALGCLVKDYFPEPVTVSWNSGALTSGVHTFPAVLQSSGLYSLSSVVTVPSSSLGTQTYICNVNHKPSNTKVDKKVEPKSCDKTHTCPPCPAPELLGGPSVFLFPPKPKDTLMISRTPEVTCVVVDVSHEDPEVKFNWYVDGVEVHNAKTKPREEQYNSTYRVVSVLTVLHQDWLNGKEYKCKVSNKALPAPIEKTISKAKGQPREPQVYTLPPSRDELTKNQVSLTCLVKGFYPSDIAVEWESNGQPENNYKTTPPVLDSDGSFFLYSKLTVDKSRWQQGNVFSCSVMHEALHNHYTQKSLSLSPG
light: DVQMTQSPSSLSASVGDRVTITCRASQDVYSYLNWYQQKPGKAVKLLIYYTSRLQSGVPSRFSGSGSGTDYTLTISSLQPEDFATYYCQQYNIFPWTFGQGTKLEIKRTVAAPSVFIFPPSDEQLKSGTASVVCLLNNFYPREAKVQWKVDNALQSGNSQESVTEQDSKDSTYSLSSTLTLSKADYEKHKVYACEVTHQGLSSPVTKSFNRGEC
Bmax (APC-A GeoMean) [1]: 2010 APC-A GeoMean | fold lower apparent Kd than v18992 (MX35) [1]: 10 fold | fold lower apparent Kd than v18993 (lifastuzumab) [1]: 2 fold | Kd [2]: 0.65 nM
